Read-outs that look alike come from different tables or passages of the source.

Holding throughout (assay): UV crosslinking
Series [1] addresses T1, DCCcore (MSL1-MSL2-MSL3-MOF) (Drosophila melanogaster, UniProt P50535;P50534;P50536;O02193 1-1039;1-773;1-512;1-827).
Another series deals with T2, MSL1 (Drosophila melanogaster, UniProt P50535 1-1039).
T2 sequence: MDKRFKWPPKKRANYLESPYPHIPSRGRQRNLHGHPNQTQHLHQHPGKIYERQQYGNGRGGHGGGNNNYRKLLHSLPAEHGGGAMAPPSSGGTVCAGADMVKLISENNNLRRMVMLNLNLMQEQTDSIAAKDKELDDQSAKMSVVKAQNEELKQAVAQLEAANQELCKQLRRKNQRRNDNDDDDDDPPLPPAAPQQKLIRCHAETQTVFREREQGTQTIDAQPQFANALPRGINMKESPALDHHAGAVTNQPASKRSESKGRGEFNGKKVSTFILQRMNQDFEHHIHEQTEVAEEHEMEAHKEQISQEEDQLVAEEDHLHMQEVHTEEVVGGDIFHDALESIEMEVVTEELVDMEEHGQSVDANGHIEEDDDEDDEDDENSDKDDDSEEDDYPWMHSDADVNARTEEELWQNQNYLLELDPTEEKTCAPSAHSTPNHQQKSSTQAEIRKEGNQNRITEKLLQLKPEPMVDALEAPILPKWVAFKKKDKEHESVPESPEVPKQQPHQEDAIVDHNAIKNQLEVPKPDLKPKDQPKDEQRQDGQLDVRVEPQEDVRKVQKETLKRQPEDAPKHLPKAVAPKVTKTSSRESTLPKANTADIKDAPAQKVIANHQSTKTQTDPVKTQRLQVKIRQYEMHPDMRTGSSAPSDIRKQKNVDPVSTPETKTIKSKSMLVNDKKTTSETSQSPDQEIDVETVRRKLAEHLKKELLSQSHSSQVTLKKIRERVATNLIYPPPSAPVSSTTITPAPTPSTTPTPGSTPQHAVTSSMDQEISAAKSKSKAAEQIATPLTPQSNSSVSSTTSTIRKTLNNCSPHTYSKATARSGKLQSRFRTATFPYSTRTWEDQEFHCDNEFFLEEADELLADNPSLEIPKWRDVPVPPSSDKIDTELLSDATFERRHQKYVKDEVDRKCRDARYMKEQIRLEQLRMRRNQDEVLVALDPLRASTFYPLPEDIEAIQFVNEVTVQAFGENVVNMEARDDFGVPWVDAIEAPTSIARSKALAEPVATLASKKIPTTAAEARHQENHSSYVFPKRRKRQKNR

The target in another series is T3, MSL2 (Drosophila melanogaster, UniProt P50534 1-773).
T3 sequence: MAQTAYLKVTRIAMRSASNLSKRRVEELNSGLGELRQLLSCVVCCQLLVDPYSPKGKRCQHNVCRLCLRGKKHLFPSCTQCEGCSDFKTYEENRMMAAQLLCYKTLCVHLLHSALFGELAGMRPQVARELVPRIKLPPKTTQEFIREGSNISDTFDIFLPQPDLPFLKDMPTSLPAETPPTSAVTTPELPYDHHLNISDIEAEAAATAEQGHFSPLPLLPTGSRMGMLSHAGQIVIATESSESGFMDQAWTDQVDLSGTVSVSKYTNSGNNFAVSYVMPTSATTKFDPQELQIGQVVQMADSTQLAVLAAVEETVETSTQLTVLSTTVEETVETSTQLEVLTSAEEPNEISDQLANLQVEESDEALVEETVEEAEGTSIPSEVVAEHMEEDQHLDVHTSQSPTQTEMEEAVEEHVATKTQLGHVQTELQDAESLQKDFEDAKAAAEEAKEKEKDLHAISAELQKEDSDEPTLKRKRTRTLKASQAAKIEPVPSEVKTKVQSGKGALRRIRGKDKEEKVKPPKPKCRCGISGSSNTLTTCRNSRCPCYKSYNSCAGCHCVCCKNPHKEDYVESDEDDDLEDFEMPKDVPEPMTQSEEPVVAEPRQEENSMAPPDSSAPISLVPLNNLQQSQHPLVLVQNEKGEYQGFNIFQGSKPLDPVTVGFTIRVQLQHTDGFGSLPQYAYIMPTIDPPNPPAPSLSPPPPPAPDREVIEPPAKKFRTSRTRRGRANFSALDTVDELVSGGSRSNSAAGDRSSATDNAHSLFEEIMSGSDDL

For series [2], the target named is T1, DCCcore (MSL1-MSL2-MSL3-MOF). This is another data set of the same source.

T1 sequence (P50536 whole entry, chain 3 of 2): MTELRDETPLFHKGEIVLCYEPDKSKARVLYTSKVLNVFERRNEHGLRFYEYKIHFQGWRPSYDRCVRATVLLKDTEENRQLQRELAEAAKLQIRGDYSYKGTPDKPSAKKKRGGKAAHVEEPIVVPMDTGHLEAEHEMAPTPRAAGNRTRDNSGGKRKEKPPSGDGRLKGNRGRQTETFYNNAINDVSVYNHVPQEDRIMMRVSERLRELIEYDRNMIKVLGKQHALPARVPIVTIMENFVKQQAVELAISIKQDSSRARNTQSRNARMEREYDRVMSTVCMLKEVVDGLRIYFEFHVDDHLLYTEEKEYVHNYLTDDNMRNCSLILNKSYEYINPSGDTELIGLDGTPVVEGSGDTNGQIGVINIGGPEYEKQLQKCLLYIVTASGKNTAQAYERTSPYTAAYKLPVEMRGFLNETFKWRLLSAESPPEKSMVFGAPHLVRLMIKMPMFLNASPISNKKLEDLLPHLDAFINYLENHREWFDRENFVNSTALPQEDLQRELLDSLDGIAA
T1 sequence (O02193 whole entry, chain 4 of 2): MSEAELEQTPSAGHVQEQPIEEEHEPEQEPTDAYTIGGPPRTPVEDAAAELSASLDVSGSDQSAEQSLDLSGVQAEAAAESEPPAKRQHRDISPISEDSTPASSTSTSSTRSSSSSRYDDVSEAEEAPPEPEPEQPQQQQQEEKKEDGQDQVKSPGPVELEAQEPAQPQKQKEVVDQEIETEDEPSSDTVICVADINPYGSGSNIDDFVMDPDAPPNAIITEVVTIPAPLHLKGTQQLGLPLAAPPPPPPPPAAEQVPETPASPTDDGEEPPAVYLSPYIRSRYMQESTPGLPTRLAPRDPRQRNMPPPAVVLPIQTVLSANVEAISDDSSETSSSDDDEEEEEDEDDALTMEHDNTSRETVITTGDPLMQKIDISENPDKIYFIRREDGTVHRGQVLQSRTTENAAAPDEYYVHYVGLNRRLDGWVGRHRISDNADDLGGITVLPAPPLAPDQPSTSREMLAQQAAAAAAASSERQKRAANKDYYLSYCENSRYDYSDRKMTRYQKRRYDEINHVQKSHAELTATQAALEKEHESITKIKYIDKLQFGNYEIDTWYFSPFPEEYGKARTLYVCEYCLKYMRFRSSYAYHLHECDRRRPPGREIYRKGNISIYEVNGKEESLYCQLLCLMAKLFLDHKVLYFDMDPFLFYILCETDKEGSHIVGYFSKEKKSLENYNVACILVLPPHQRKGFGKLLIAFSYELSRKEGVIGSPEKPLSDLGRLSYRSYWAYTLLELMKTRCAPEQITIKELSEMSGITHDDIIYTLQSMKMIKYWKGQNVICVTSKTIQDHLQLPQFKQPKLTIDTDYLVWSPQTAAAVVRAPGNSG

As for UGGGUAACGUUUUACGCGCCUU (structured_RNA) [roX2 SL7-3'], the binding result (in series [1]; with MSL1; in the series with MSL2) was “binds” throughout.

AUUAAGCAAAUAUAUAUGCAUAUAU (structured_RNA) [roX2 SL7-Loop]: the binding result in series [2] is “no binding”.

Values taken from publication PMC7528653.
